Two substances from patent US20120301393A1, “MODIFIED UBIQUITIN PROTEINS HAVING A SPECIFIC BINDING ACTIVITY FOR THE EXTRADOMAIN B OF FIBRONECTIN” (Scil Proteins GmbH, priority 2009, published 2012) can be followed below.

“Also recorded” adds a separate entry of the source.

Series [1] relates to L929 cells. In words: L929 apoptosis assay (TNFα activity). It is filed as cell-based. Conditions: actinomycinD sensitized L929 cells, 48 h; listed as free cytokine; read-out: EC50 value, corresponding TNFα (free cytokine) tested in parallel. The method, then: The physiological TNFα-activity of TNFα-modified ubiquitin based ED-B binding fusions has been determined using the L929 apoptosis assay (Flick et al., 1984 J. Immunol. Methods. 68:167-175). In this assay, TNF-alpha efficiently stimulates cell death in actinomycinD sensitized cells at EC50 values in the picomolar range.
Cells have been resuspended in medium containing FBS and antibiotics. A cell suspension of 100 μl of a densitiy of 3.5×10^5 cells/ml has been seeded into the wells of a 96 well standard cell culture plate followed by over night incubation in a humidified CO2 incubator. Thereafter, the culture medium has been removed and 50 μl of medium containing FBS, ActinomycinD and antibiotics has been added to each well followed by a further 30 min incubation time. Thereafter, 50 μl of the test items, TNFα-modified ubiquitin based ED-B binding-fusions or the human recombinant TNFαcontrol, at an appropriate concentration range of between 10^−7 and 10^−18 M, have been added. After a further 48 h incubation time the metabolic activity as a measure of cell survival was determined using WST-1 reagent (Roche).
Per test item at least three independent experiments have been conducted, each of them in triplicates. […]
The quantitative evaluation is based on the EC50-value, i.e. the value according to the test item concentration promoting the survival of half of the cells.

Series [2] has as its target T1, Human fibronectin lacking the ED-B domain (h6789) (Homo sapiens, UniProt P02751).
T1 construct: fibronectin fragment 6789 without ED-B
Nature of the series: concentration dependent ELISA, negative control fibronectin fragment without ED-B. The class given is binding. On the technique in general: In an ELISA, binding on a coated surface is turned into a signal by an enzyme label.

The target in series [3] is immobilized ED-B containing fibronectin fragment (67B89) (Homo sapiens, UniProt P02751). Nature of the series: competitive concentration dependent ELISA. The class given is binding. Conditions: in the presence of increasing amounts of free target. The method, then:
Competitive concentration dependent ELISAs analyzed the binding of ubiquitin variant 1041-D11 to immobilized ED-B containing fibronectin fragment […] in the presence of increasing amounts of free target. Conditions of the ELISA were as described for Example 5A, except that 1041-D11 protein was preincubated with ED-B (67B89) (0 μM-10 μM) or also with negative control 6789 (0 μM-10 μM) for 1 h and subsequently the mixture was given to the target 67B89 that was placed on a Medisorp-plate; following this, the variant was detected by the corresponding antibody (anti-Ubiquitin-Fab-POD; dilution 1:6500).

Series [4] addresses ED-B (67B89) (Homo sapiens, UniProt P02751). Nature of the series: concentration dependent ELISA analyzing serum-stability of binding activity. Conditions: 1 h at 37° C. in mouse or rat serum. The method, then: The ELISA is performed using procedures well known in the art and as described above (Example 5A and 5B). ED-B (here referred to as 67B89) is coated to microtiter plates, the variant is bound to ED-B and detected by a specific ubiquitin-antibody (Anti-Ubi-Fab-POD). The variant in this assay is treated in different ways: the variant is incubated in mouse serum for 1 h at 37° C. (see in FIG. 13, circles in blue); the variant is incubated in rat serum for 1 h at 37° C. (in FIG. 13, circles in red); or the variant is incubated PBS for 1 h at 37° C. (in FIG. 13, circles in black).

In series [5] the target is ED-B containing fibronectin fragment (67B89) (Homo sapiens, UniProt P02751). In words: label-free interaction assay using Biacore. The class given is binding. Conditions: 1:1-Langmuir-fitting. The method, then:
Different concentrations of the variant were analyzed (for example, 0-200 nM of the variant, preferably 1041-D11) for binding to an ED-B containing fibronectin fragment (referred to as 67B89) immobilized on a CM5-chip (Biacore) using methods known to those skilled in the art. The obtained data were processed via the BIAevaluation software and 1:1-Langmuir-fitting. The kinetic binding constants were kon=7.6*10^5 M^−1 s^−1; koff=7.7*10^−4 s^−1. […]

Series [6] concerns the target fibronectin fragment 67B89 (soluble ED-B) (Homo sapiens, UniProt P02751). Nature of the series: complex-formation analysis by SE-HPLC with 67B89. It is filed as binding. Conditions: 0.72 nmol each, 1 h RT. The method, then:
(§1) For the analysis of complex formation, Tricorn Superdex 75 5/150 GL columns (GE-Healthcare) (V=3 ml) was used, protein amount of 50 μl was applied. Further conditions: buffer: 1×PBS, pH 7.3, flow-rate: 0.3 ml/min, run: 45 min (injection of sample: after 15 min). Condition: 0.72 nmol 1041-D11 protein+0.72 nmol ED-B (herein referred to 67B89 or also as a negative control 6789) incubated for 1 h at RT; then applied to column for analysis of complex-formation. In FIG. 14, only the variant is shown in black, only the target ED-B is shown in blue, the variant binding building a complex with ED-B in pink.

Series [7] has as its target T2, ED-B free fibronectin fragment 6789 (Homo sapiens, UniProt P02751).
T2 construct: fibronectin fragment 6789 without ED-B
In words: complex-formation analysis by SE-HPLC with 6789. The class given is binding. The settings on record: 0.72 nmol each, 1 h RT. The method, then: as §1

For series [8], the system named is human fetal lung fibroblast cells (Wi38). In words: binding to cell culture cells, Wi38. It is filed as cell-based. The settings on record: immunofluorescence. The method, then:
(§2) The binding of, for example, variant 1041-D11 to cell culture cells was tested. Different cell culture cells were analysed, including normal human fetal lung fibroblast cells having high expression levels of ED-B (Wi38 cells), a mouse embryonic fibroblast cell line (Balb 3T3); a stromal cell line, derived from mouse bone marrow (ST-2) monocytes/macrophages (RAW 264.7), NHDF cells and murine fibroblast cells (LM).
The negative control cell type NHDF are primary normal fibroblast cells, which express low levels of EDB-fibronectin (data not shown).
The negative control cell type NHDF is primary normal fibroblast cells, which express low levels of EDB-fibronectin. The cells were plated in chamber-slides (NUNC, 60000 cells/ml). To analyses the binding potential the cells were fixed with 100% MeOH for 5 min at −20° C. To block unspecific binding, the cells were incubated with 5% Horse-serum 1 h 37° C. The cells were tested with the variant 1041-D11, an ED-B specific antibody FV28 CH4/F1 as positive control or UB—2 as negative control with different concentrations 1 h RT. The proving occurred about an incubation with rabbit-a-Strep-Tag-IgG (obtained from GenScript A00875, 1:500) for 1 h and incubation with a-rabbit-IgG*Alexa488-AK (obtained from Invitrogen A11008, 1:1000) for 1 h. The nuclei were stained with DAPI. […] The first 2 lines show the variant and positive control on Wi38-cell line.

Series [9] has as its system murine Balb 3T3-cells. In words: binding to cell culture cells, Balb 3T3. It is filed as cell-based. The settings on record: 1, 10, 50 nM. The method, then: as §2
(§3) Similar experiments were performed using different cells types, for example Balb3T3 (ATCC, Kat-Nr. 30-2002), Raw (Lonza, Kat-Nr. BE12-115F/U1), ST-2 (Lonza, Kat-Nr. BE12-115F/U1).

In series [10] the test system is murine ST-2-cells. In words: binding to cell culture cells, ST-2. The class given is cell-based. The settings on record: 1, 10, 50 nM. The method, then: as §2, §3
Series [11] has as its system monocytes/macrophages (RAW 264.7). Nature of the series: binding to cell culture cells, Raw. The class given is cell-based. The settings on record: data not shown. The method, then:
as §2, §3

Series [12] addresses T3, ED-B in F9 tumor vasculature (Mus musculus, UniProt P11276).
T3 construct: 1041-D11 specifically decorates the vasculature in tissue sections from F9 tumors; from tissue; host or cells: F9 tumor tissue sections from mice
In words: immunohistochemistry on F9 tumor tissue sections. Conditions: seven samples. The arrangement: species or system mice. The method, then:
F9 tumor tissues from seven samples were evaluated. […] ED-B is a highly specific marker for tumor vasculature. The target protein EDB is located on the abluminal side of the vessels. 1041-D11 specifically decorates the vasculature in tissue sections from F9 tumors. […] Thus, fusion proteins based on modified ubiquitin specifically binding to ED-B are suitable an ED-B based targeted therapy for cancer.

Series [13] in a line: tissue panel staining (48 tissues, FDA relevant panel).

Sequence of ED-B containing fibronectin fragment (67B89) (P02751 32-2477): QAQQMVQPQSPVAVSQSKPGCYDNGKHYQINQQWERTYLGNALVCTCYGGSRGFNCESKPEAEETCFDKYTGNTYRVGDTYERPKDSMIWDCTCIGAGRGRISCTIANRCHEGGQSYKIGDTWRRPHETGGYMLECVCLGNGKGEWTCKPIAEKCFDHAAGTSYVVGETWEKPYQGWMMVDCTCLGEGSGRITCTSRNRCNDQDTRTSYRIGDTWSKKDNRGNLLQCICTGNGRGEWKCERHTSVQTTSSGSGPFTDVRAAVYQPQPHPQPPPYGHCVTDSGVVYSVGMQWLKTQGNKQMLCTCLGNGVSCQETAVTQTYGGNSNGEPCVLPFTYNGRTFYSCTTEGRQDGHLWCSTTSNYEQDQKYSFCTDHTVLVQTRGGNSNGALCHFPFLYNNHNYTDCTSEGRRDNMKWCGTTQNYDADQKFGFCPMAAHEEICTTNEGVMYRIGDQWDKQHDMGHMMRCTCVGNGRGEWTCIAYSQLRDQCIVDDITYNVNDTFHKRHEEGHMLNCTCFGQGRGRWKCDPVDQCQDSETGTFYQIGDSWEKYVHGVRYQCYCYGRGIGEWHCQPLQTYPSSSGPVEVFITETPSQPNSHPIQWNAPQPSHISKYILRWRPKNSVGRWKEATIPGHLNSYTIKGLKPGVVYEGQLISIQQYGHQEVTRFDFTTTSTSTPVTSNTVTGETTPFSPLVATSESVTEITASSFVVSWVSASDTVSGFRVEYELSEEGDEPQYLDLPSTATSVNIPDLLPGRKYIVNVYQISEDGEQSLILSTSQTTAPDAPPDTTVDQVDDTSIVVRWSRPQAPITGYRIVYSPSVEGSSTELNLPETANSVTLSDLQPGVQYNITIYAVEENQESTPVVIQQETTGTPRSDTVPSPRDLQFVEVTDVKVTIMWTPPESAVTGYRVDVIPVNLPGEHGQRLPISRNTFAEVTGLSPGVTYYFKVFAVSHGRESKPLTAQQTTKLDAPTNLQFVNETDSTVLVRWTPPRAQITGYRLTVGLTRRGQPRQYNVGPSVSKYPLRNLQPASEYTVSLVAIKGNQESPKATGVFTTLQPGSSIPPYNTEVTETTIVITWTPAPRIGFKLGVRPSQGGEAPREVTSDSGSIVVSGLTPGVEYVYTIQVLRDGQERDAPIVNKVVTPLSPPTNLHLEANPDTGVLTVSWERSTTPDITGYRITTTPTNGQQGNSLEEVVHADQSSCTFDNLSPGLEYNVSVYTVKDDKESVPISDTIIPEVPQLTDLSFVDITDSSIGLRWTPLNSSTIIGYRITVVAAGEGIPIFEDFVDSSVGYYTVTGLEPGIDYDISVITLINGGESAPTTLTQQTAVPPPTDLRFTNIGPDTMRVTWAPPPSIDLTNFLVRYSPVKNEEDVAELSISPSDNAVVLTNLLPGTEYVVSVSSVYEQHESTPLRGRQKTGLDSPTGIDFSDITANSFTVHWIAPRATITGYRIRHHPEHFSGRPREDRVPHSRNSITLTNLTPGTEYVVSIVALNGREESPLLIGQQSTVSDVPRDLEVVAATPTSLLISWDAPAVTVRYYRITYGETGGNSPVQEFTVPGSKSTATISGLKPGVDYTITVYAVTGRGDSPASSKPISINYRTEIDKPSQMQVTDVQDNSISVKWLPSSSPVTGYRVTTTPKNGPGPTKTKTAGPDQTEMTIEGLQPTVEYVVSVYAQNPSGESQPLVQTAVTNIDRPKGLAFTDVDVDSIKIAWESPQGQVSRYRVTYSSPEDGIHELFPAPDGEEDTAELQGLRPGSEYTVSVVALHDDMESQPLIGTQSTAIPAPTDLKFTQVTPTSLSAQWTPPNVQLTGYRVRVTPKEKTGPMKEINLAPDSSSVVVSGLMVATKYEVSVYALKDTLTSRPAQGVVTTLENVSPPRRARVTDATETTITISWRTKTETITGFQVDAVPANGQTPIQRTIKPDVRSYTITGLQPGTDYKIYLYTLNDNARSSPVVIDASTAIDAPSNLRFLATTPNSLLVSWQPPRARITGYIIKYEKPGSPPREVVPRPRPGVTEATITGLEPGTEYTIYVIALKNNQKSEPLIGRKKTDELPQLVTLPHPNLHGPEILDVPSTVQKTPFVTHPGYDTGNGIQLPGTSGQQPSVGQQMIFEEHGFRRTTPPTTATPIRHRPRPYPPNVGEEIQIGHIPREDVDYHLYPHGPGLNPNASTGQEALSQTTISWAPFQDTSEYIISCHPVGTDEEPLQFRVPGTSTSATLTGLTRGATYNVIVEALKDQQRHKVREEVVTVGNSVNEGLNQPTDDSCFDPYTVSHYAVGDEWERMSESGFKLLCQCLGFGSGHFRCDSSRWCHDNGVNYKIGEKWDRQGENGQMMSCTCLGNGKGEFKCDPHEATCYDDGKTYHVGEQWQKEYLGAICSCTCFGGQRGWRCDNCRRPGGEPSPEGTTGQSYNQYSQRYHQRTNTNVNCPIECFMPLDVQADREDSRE
T2 sequence (P02751 1089-1449 isoform P02751-1): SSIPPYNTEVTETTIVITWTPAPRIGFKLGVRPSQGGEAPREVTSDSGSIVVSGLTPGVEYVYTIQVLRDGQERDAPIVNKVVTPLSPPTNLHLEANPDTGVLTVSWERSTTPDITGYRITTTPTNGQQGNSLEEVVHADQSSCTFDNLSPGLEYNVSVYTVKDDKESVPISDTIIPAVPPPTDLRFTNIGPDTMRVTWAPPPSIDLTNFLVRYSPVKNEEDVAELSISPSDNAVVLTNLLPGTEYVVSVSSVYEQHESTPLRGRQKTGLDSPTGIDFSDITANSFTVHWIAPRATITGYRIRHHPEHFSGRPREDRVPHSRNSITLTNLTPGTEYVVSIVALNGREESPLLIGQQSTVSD
Sequence of fibronectin fragment 67B89 (soluble ED-B) (P02751 32-2477): as the sequence (P02751 32-2477) above
T1 sequence (P02751 1089-1449 isoform P02751-1 limits assumed): as the sequence (P02751 1089-1449 isoform P02751-1) above
Sequence of ED-B (67B89) (P02751 32-2477): as the sequence (P02751 32-2477) above
Sequence of immobilized ED-B containing fibronectin fragment (67B89) (P02751 32-2477): as above

Broadly, the EC50 is the midpoint of the concentration-response curve. As to TNFα [reference compound], the EC50 in series [1] was 0.00314 ± 0.00359 nM.

Usually IC50 stands for the midpoint of a concentration-inhibition curve. In general, koff refers to the rate constant with which the complex falls apart. Lower therefore signals a long-lived complex. In general, kon refers to the second-order rate constant of association. For “1041-D11: hetero-dimeric ubiquitin variant: K6W, L8W, K63R, E64K, S65F, T66P; second module Q2R, K6T, L8Q, Q62W, K63S, E64N, S65W, T66E”, in [2], the “binding to negative control fibronectin fragment without ED-B (6789)” value is “no binding”. In series [3], the 50% inhibitory concentration (IC50) was 140 nM. The “influence of blood serum on binding to ED-B” value in [4] was “not significantly influenced”. Moreover, in [5], the koff came out at 0.00077 s⁻¹ and the kon was found to be 760000 M⁻¹ s⁻¹. In series [6], the “complex formation with 67B89” value is given as “formation of a complex; also recorded: builds a complex”. The “complex formation with 6789” value in series [7] is recorded as “no significant binding; also recorded: builds no complex”. The “binding to vital Wi38 cells” value in series [8] is given as “binds to vital Wi38 cells with high specificity”. Moreover, the “binding to fixed Wi38 cells” value in series [8] (58.7 nM and 587 nM) was “binds to fixed Wi38 cells with high specificity”. Also, the “binding to fixed murine Balb 3T3-cells” value in series [9] is recorded as “binds to murine Balb 3T3 cells with high specificity”. The “binding to fixed murine ST-2-cells” value in series [10] is “binds to murine Balb ST-2 cells with high specificity”. Moreover, the “binding to monocytes/macrophages (Raw)” value in series [11] was “No binding”. Moreover, the “staining of F9 tumor tissue sections” value in series [12] was “ED-B specific vascular staining”. Also, in series [13], the “unspecific staining in 48 tissues of FDA relevant panel” value is given as “no unspecific staining”.
